{
  "source": "patent US20170319675A1",
  "about": "(IMMATICS BIOTECHNOLOGIES, published 2017)",
  "target": "T1, HLA-A*0201 (human)",
  "T1 construct": "also called peptide-receptive MHC molecules; MHC class I",
  "assay": "UV-ligand exchange; anti-b2m ELISA",
  "excerpt": "Candidate peptides for the vaccines according to the present invention were further tested for immunogenicity by in vitro priming assays. The individual peptide-MHC complexes required for these assays were produced by UV-ligand exchange, where a UV-sensitive peptide is cleaved upon UV-irradiation, and exchanged with the peptide of interest as analyzed. Only peptide candidates that can effectively bind and stabilize the peptide-receptive MHC molecules prevent dissociation of the MHC complexes. To determine the yield of the exchange reaction, an ELISA was performed based on the detection of the light chain (β2m) of stabilized MHC complexes.\nPeptide-MHC monomers of the UV-exchange reaction were diluted 100 fold in blocking buffer. Samples were incubated for 1 h at 37° C., washed four times, incubated with 2 μg/ml HRP conjugated anti-β2m for 1 h at 37° C., washed again and detected with TMB solution that is stopped with […]. Absorption was measured at 450 nm.",
  "data": [
    {"binder": "RLLAAENFL", "note": "[SAMSN1-001]", "values": [
      {"measurement": "Average exchange yield in %", "result": 47, "unit": "%"}
    ]}
  ]
}
